This note sets out measurements from doi:10.1101/2021.08.28.458007v1.

The subject of the data set is O=C1O[C@H]([C@@H](O)CO)C(=O)C1=O. Put plainly: purified protein. The following applies: co-substrate GSH, 50 mM phosphate pH 6.8, 0.2 mM EDTA.
The kcat is the maximal rate divided by the concentration of active sites. As to HsCLIC1 (Homo sapiens), the Km is listed as 2753 (±939.5) μM and the catalytic constant (kcat) was 0.00542 s⁻¹.
Regarding HsCLIC1 (Homo sapiens; K13A), the Km is 4121 (±858.6) μM and the kcat turned out to be 0.0002 s⁻¹.
On the same counts, the results for HsCLIC3 (Homo sapiens) are 310.2 (±140.2) μM and 0.00197 s⁻¹.
Taken in the same sequence, the figures for HsCLIC4 (Homo sapiens) were 495.1 (±316.6) μM and 0.00222 s⁻¹.
